These results are taken from patent US20180009871A1 (INTARCIA THERAPEUTICS, published 2018).

Where no end group is shown, it is not given here. [ ]: non-standard residue; d: D form. Aib = CC(C)(N)C(=O)O

For assay [1], the target named is human GLP-1 receptor (GLP-1R) (human, UniProt P43220 24-463). As to the kind of experiment: cell-based or functional assay.
The target of assay [2] is human glucagon receptor (GCGR) (human, UniProt P47871 26-477). As to the kind of experiment: cell-based or functional assay.

Chain of human GLP-1 receptor (GLP-1R) (P43220 24-463): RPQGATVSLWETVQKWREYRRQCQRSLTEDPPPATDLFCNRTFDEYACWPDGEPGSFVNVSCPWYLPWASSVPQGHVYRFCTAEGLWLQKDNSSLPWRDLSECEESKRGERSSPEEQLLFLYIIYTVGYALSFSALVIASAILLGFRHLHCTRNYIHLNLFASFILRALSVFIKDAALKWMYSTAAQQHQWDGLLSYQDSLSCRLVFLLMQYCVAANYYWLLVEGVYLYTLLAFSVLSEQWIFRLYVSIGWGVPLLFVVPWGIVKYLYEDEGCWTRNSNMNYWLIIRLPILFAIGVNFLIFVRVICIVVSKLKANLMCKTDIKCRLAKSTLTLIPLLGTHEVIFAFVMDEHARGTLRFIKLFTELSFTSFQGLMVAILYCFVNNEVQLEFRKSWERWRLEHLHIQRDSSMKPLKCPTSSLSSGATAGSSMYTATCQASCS

B1: Compound A36 (peptide)
peptide: YSHGTFTSDHSKWLD[Aib]ARAQEFV[Aib]WLEDEPSSGAPPPS-OH
modifications: N-terminus assumed
SMILES: CC(C)C[C@H](NC(=O)[C@H](Cc1c[nH]c2ccccc12)NC(=O)[C@H](CCCCN)NC(=O)[C@H](CO)NC(=O)[C@H](Cc1c[nH]cn1)NC(=O)[C@H](CC(=O)O)NC(=O)[C@H](CO)NC(=O)[C@@H](NC(=O)[C@H](Cc1ccccc1)NC(=O)[C@@H](NC(=O)CNC(=O)[C@H](Cc1c[nH]cn1)NC(=O)[C@H](CO)NC(=O)[C@@H](N)Cc1ccc(O)cc1)[C@@H](C)O)[C@@H](C)O)C(=O)N[C@@H](CC(=O)O)C(=O)NC(C)(C)C(=O)N[C@@H](C)C(=O)N[C@@H](CCCNC(=N)N)C(=O)N[C@@H](C)C(=O)N[C@@H](CCC(N)=O)C(=O)N[C@@H](CCC(=O)O)C(=O)N[C@@H](Cc1ccccc1)C(=O)N[C@H](C(=O)NC(C)(C)C(=O)N[C@@H](Cc1c[nH]c2ccccc12)C(=O)N[C@@H](CC(C)C)C(=O)N[C@@H](CCC(=O)O)C(=O)N[C@@H](CC(=O)O)C(=O)N[C@@H](CCC(=O)O)C(=O)N1CCC[C@H]1C(=O)N[C@@H](CO)C(=O)N[C@@H](CO)C(=O)NCC(=O)N[C@@H](C)C(=O)N1CCC[C@H]1C(=O)N1CCC[C@H]1C(=O)N1CCC[C@H]1C(=O)N[C@@H](CO)C(=O)O)C(C)C
In the case of B1, the “hGLP1 pEC50 (cAMP)” value in assay [1] was under 9 pEC50. The “hGCGR pEC50 (cAMP)” value in assay [2] was 10.2 pEC50.

B2: Compound A45 (peptide)
peptide: YSHGTFTSDYSKYLD[Aib]KRAQEFV[Aib]WLEDEKRNKPPPA-OH
modifications: N-terminus assumed
SMILES: CC(C)C[C@H](NC(=O)[C@H](Cc1ccc(O)cc1)NC(=O)[C@H](CCCCN)NC(=O)[C@H](CO)NC(=O)[C@H](Cc1ccc(O)cc1)NC(=O)[C@H](CC(=O)O)NC(=O)[C@H](CO)NC(=O)[C@@H](NC(=O)[C@H](Cc1ccccc1)NC(=O)[C@@H](NC(=O)CNC(=O)[C@H](Cc1c[nH]cn1)NC(=O)[C@H](CO)NC(=O)[C@@H](N)Cc1ccc(O)cc1)[C@@H](C)O)[C@@H](C)O)C(=O)N[C@@H](CC(=O)O)C(=O)NC(C)(C)C(=O)N[C@@H](CCCCN)C(=O)N[C@@H](CCCNC(=N)N)C(=O)N[C@@H](C)C(=O)N[C@@H](CCC(N)=O)C(=O)N[C@@H](CCC(=O)O)C(=O)N[C@@H](Cc1ccccc1)C(=O)N[C@H](C(=O)NC(C)(C)C(=O)N[C@@H](Cc1c[nH]c2ccccc12)C(=O)N[C@@H](CC(C)C)C(=O)N[C@@H](CCC(=O)O)C(=O)N[C@@H](CC(=O)O)C(=O)N[C@@H](CCC(=O)O)C(=O)N[C@@H](CCCCN)C(=O)N[C@@H](CCCNC(=N)N)C(=O)N[C@@H](CC(N)=O)C(=O)N[C@@H](CCCCN)C(=O)N1CCC[C@H]1C(=O)N1CCC[C@H]1C(=O)N1CCC[C@H]1C(=O)N[C@@H](C)C(=O)O)C(C)C
In the case of B2, in assay [1], the “hGLP1 pEC50 (cAMP)” value is under 9 pEC50. For the same molecule, in assay [2], the “hGCGR pEC50 (cAMP)” value amounted to 11.7 pEC50.

Consider YSHGTFTSDYSKWLDSARAQEFVKWLEDEPSSGAPPPS-OH [Compound A38], for which the “hGLP1 pEC50 (cAMP)” value in assay [1] is under 9 pEC50. Further, the “hGCGR pEC50 (cAMP)” value in assay [2] is 13.7 pEC50.

Turning to YSHGTFTSDYSKYLDQARAQEFVKWLEDEPSSGAPPPS-OH [Compound A44], in assay [1], the “hGLP1 pEC50 (cAMP)” value is under 9 pEC50. Besides, the “hGCGR pEC50 (cAMP)” value in assay [2] is 11.9 pEC50.

Turning to YTHGTFTSDHSKWLDEARAQEFVKWLEDEPSSGAPPPS-OH [Compound A41], in assay [1], the “hGLP1 pEC50 (cAMP)” value was under 9 pEC50. For the same molecule, the “hGCGR pEC50 (cAMP)” value in assay [2] is 9.2 pEC50.

For YSHGTFTSDHSKWLDSARAQEFVKWLEDEPSSGAPPPS-OH [Compound A40], in assay [1], the “hGLP1 pEC50 (cAMP)” value is under 9 pEC50. Besides, the “hGCGR pEC50 (cAMP)” value in assay [2] came to 10.1 pEC50.

YSHGTFTSDYSKYLDSARAQEFVKWLEDEPSSGAPPPS-OH [Compound A37]: the “hGLP1 pEC50 (cAMP)” value in assay [1] is under 9 pEC50. For the same molecule, the “hGCGR pEC50 (cAMP)” value in assay [2] worked out at 13 pEC50.

Regarding YTHGTFTSDYSKWLDSKRAQEFVKWLEDEPSSGAPPPS-OH [Compound A42], the “hGLP1 pEC50 (cAMP)” value in assay [1] is under 9 pEC50. The “hGCGR pEC50 (cAMP)” value in assay [2] was 9.4 pEC50.

Regarding YSHGTFTSDYSKYLDKARAQEFVKWLEDEPSSGAPPPS-OH [Compound A43], the “hGLP1 pEC50 (cAMP)” value in assay [1] is under 9 pEC50. Moreover, the “hGCGR pEC50 (cAMP)” value in assay [2] is 11.8 pEC50.

Regarding YTHGTFTSDYSKWLDSARAQEFVKWLEDEPSSGAPPPS-OH [Compound A39], the “hGLP1 pEC50 (cAMP)” value in assay [1] was under 9 pEC50. Besides, the “hGCGR pEC50 (cAMP)” value in assay [2] worked out at 9.4 pEC50.

B3: Compound A35 (peptide)
peptide: YTHGTFTSDYSKWLD[Aib]ARAQEFV[Aib]WLEDEPSSGAPPPS-OH
modifications: N-terminus assumed
SMILES: CC(C)C[C@H](NC(=O)[C@H](Cc1c[nH]c2ccccc12)NC(=O)[C@H](CCCCN)NC(=O)[C@H](CO)NC(=O)[C@H](Cc1ccc(O)cc1)NC(=O)[C@H](CC(=O)O)NC(=O)[C@H](CO)NC(=O)[C@@H](NC(=O)[C@H](Cc1ccccc1)NC(=O)[C@@H](NC(=O)CNC(=O)[C@H](Cc1c[nH]cn1)NC(=O)[C@@H](NC(=O)[C@@H](N)Cc1ccc(O)cc1)[C@@H](C)O)[C@@H](C)O)[C@@H](C)O)C(=O)N[C@@H](CC(=O)O)C(=O)NC(C)(C)C(=O)N[C@@H](C)C(=O)N[C@@H](CCCNC(=N)N)C(=O)N[C@@H](C)C(=O)N[C@@H](CCC(N)=O)C(=O)N[C@@H](CCC(=O)O)C(=O)N[C@@H](Cc1ccccc1)C(=O)N[C@H](C(=O)NC(C)(C)C(=O)N[C@@H](Cc1c[nH]c2ccccc12)C(=O)N[C@@H](CC(C)C)C(=O)N[C@@H](CCC(=O)O)C(=O)N[C@@H](CC(=O)O)C(=O)N[C@@H](CCC(=O)O)C(=O)N1CCC[C@H]1C(=O)N[C@@H](CO)C(=O)N[C@@H](CO)C(=O)NCC(=O)N[C@@H](C)C(=O)N1CCC[C@H]1C(=O)N1CCC[C@H]1C(=O)N1CCC[C@H]1C(=O)N[C@@H](CO)C(=O)O)C(C)C
As to B3, the “hGLP1 pEC50 (cAMP)” value in assay [1] was under 9 pEC50. Moreover, the “hGCGR pEC50 (cAMP)” value in assay [2] stood at 13.2 pEC50.
